Test results as given in article PMC3743801.

target: C-terminal vinculin homology domain of α-catenin (α-catenin635–906) (UniProt P35221); experiment: fluorescence polarisation; fluorescence anisotropy of FITC-labelled EspB fragments (fluorescein at the N-terminus) and of EspB with α-catenin635–906; KD by nonlinear curve fitting; buffer and temperature not stated
Sequence of UniProt P35221 (P35221 635-906): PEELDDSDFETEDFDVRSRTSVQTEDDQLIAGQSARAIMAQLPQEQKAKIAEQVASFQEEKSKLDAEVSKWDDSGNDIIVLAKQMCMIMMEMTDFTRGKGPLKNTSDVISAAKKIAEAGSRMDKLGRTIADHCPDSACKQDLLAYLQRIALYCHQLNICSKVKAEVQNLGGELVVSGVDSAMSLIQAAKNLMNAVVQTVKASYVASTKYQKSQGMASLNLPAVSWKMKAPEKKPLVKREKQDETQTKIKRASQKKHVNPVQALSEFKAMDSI

In order of rising Kd:
1. EspB41–70 (peptide)  2.5 µM
2. EspB from enterohaemorrhagic E. coli (EHEC) (natural protein)  2.9 µM
3. EspB51–70 (peptide)  12 µM
4. EspB41–60 (peptide)  23 µM
